Assay results: doi:10.1101/433045 (bioRxiv, 2020)
No end group written: not given here. FAM = 5,6-carboxyfluorescein

Experiments:
Experiment in all cases: fluorescence polarisation
[1] = biological target: Trf4 NIM peptide (S. cerevisiae)
[2] = biological target: T1, Nrd1 CID R28D (S. cerevisiae, UniProt P53617 1-153, R28D)
T1 sequence: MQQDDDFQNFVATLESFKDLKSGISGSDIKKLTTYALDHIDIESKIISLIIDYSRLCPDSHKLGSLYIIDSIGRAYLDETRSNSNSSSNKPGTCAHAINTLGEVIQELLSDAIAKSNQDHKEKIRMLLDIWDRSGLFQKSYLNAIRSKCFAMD

[3] = biological target: T2, Nrd1 CID (S. cerevisiae, UniProt P53617 1-153)
T2 sequence: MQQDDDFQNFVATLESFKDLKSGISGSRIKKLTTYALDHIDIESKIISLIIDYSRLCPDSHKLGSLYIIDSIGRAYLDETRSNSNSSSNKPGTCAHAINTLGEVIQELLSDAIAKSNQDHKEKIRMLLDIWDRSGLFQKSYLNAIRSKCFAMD

[4] = biological target: T3, Nrd1 CID L20D (S. cerevisiae, UniProt P53617 1-153, L20D)
T3 sequence: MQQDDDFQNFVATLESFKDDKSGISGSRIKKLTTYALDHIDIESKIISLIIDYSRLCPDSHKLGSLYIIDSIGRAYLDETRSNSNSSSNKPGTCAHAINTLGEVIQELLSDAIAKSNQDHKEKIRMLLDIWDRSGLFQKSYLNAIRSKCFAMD

[5] = biological target: T4, Nrd1 CID S25D (S. cerevisiae, UniProt P53617 1-153, S25D)
T4 sequence: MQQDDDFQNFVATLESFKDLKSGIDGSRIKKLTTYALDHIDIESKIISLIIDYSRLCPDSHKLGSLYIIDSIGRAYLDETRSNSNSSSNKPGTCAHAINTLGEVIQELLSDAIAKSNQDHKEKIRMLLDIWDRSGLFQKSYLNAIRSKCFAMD

[6] = biological target: T5, Nrd1 CID K21D (S. cerevisiae, UniProt P53617 1-153, K21D)
T5 sequence: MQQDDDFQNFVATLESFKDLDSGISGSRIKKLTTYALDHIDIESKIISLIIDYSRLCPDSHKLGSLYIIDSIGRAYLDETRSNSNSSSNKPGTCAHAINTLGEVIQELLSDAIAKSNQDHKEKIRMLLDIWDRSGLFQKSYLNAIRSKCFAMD

B1: Nrd1 CID (domain or fragment)
chain: MQQDDDFQNFVATLESFKDLKSGISGSRIKKLTTYALDHIDIESKIISLIIDYSRLCPDSHKLGSLYIIDSIGRAYLDETRSNSNSSSNKPGTCAHAINTLGEVIQELLSDAIAKSNQDHKEKIRMLLDIWDRSGLFQKSYLNAIRSKCFAMD
- Kd [1]: 0.9 µM

Binder: {FAM}-DDDEDDYTPSIS [Sen1 NIM peptide]
- binding result [2]: binds
- Kd [3]: 1.2 ± 0.02 µM
- binding result [4]: binds
- binding result [5]: binds
- binding result [6]: binds
